What was measured:
Conditions in all cases: protein: recombinant; single strand
[1] = molecular target: T1, eIF4A1 (UniProt P60842 1-406); assay: fluorescence polarization, protein titration; 50 uM (-)-7, 1 mM ATP; EC50 for complex formation, range for all three compounds; FP: 14.4 mM HEPES-KOH pH 8, 108 mM NaCl, 1 mM MgCl2, 14.4% glycerol, 0.1% DMSO, 2 mM DTT, 1 mM ATP, 10 nM probe, room temperature, 10 min
[2] = molecular target: T1, eIF4A1; assay: fluorescence polarization, protein titration; 50 uM (-)-20, 1 mM ATP; EC50 for complex formation, range for all three compounds; FP: 14.4 mM HEPES-KOH pH 8, 108 mM NaCl, 1 mM MgCl2, 14.4% glycerol, 0.1% DMSO, 2 mM DTT, 1 mM ATP, 10 nM probe, room temperature, 10 min
[3] = molecular target: T1, eIF4A1; assay: fluorescence polarization, protein titration; 50 uM (-)-5, 1 mM ATP; EC50 for complex formation, range for all three compounds; FP: 14.4 mM HEPES-KOH pH 8, 108 mM NaCl, 1 mM MgCl2, 14.4% glycerol, 0.1% DMSO, 2 mM DTT, 1 mM ATP, 10 nM probe, room temperature, 10 min

Measured: apparent K (half saturation)

T1 sequence (P60842 whole entry): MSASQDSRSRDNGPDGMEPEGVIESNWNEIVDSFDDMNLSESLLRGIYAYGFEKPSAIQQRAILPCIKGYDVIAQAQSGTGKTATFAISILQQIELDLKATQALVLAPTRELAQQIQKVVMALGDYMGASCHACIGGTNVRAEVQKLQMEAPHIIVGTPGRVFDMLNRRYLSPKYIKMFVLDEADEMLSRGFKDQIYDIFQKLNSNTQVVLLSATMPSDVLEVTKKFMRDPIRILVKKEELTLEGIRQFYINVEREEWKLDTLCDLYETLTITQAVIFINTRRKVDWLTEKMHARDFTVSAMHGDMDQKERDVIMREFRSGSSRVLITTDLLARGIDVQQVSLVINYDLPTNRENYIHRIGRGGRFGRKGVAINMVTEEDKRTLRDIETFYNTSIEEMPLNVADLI

B1: FAM-r(AG)8 (ssRNA)
RNA: AGAGAGAGAGAGAGAG
~245 nM: all assays above

— article PMC11363328, “Identification of Rocaglate Acyl Sulfamides as Selective Inhibitors of Glioblastoma Stem Cells”
